# Experimental data taken from the MegaScale stability set (Tsuboyama et al. 2023).
# B1: HEEH_KT_rd6_3546 (parent)
# chain: SEEDKEREHWERLNRDFELRVLDTTFIAHHAEEVIKLLRWLEK
# Variants of: B1
# Test: folding stability dG (cDNA display proteolysis); higher = more stable
# Conditions: PBS, room temperature
row,Variant,folding stability dG [kcal/mol]
1,SEEDKEREHWERLNRDFKLRVLDTTFIAHHAEEVIKLLRWLEK [E18K],1.62
2,SEEDKEREHWERLNRDFFLRVLDTTFIAHHAEEVIKLLRWLEK [E18F],2.66
3,SEEDKEREHWERLNRDFQLRVLDTTFIAHHAEEVIKLLRWLEK [E18Q],1.72
4,SEEDKEREHWERLNRDFPLRVLDTTFIAHHAEEVIKLLRWLEK [E18P],1.52
5,SEEDKEREHWERLNRDFYLRVLDTTFIAHHAEEVIKLLRWLEK [E18Y],2.4
6,SEEDKEREHWERLNRDFMLRVLDTTFIAHHAEEVIKLLRWLEK [E18M],2.15
7,SEEDKEREHWERLNRDFILRVLDTTFIAHHAEEVIKLLRWLEK [E18I],2.34
8,SEEDKEREHWERLNRDFRLRVLDTTFIAHHAEEVIKLLRWLEK [E18R],1.87
9,SEEDKEREHWERLNRDFVLRVLDTTFIAHHAEEVIKLLRWLEK [E18V],2.17
10,SEEDKEREHWERLNRDFNLRVLDTTFIAHHAEEVIKLLRWLEK [E18N],1.5
11,SEEDKEREHWERLNRDFHLRVLDTTFIAHHAEEVIKLLRWLEK [E18H],1.79
12,SEEDKEREHWERLNRDFWLRVLDTTFIAHHAEEVIKLLRWLEK [E18W],2.88
13,SEEDKEREHWERLNRDFDLRVLDTTFIAHHAEEVIKLLRWLEK [E18D],1.42
14,SEEDKEREHWERLNRDFSLRVLDTTFIAHHAEEVIKLLRWLEK [E18S],1.83
15,SEEDKEREHWERLNRDFALRVLDTTFIAHHAEEVIKLLRWLEK [E18A],1.79
16,SEEDKEREHWERLNRDFGLRVLDTTFIAHHAEEVIKLLRWLEK [E18G],1.36
17,SEEDKEREHWERLNRDFLLRVLDTTFIAHHAEEVIKLLRWLEK [E18L],2.33
18,SEEDKEREHWERLNRDFTLRVLDTTFIAHHAEEVIKLLRWLEK [E18T],2.19
19,SEEDKEREHWERLNRDFECRVLDTTFIAHHAEEVIKLLRWLEK [L19C],2.03
20,SEEDKEREHWERLNRDFEDRVLDTTFIAHHAEEVIKLLRWLEK [L19D],0.732
21,SEEDKEREHWERLNRDFEARVLDTTFIAHHAEEVIKLLRWLEK [L19A],0.896
22,SEEDKEREHWERMNRDFELRVLDTTFIAHHAEEVIKLLRWLEK [L13M],1.36
23,SEEDKEREHWERWNRDFELRVLDTTFIAHHAEEVIKLLRWLEK [L13W],1.75
24,SEEDKEREHWERPNRDFELRVLDTTFIAHHAEEVIKLLRWLEK [L13P],1.14

row,Variant,folding stability dG [kcal/mol]
1,SEEDKEREHWERVNRDFELRVLDTTFIAHHAEEVIKLLRWLEK [L13V],1.39
2,SEEDKEREHWERQNRDFELRVLDTTFIAHHAEEVIKLLRWLEK [L13Q],0.972
3,SEEDKEREHWERFNRDFELRVLDTTFIAHHAEEVIKLLRWLEK [L13F],1.7
4,SEEDKEREHWERKNRDFELRVLDTTFIAHHAEEVIKLLRWLEK [L13K],1.4
5,SEEDKEREHWERRNRDFELRVLDTTFIAHHAEEVIKLLRWLEK [L13R],1.88
6,SEEDKEREHWERSNRDFELRVLDTTFIAHHAEEVIKLLRWLEK [L13S],1.26
7,SEEDKEREHWERANRDFELRVLDTTFIAHHAEEVIKLLRWLEK [L13A],1.17
8,SEEDKEREHWERDNRDFELRVLDTTFIAHHAEEVIKLLRWLEK [L13D],1.24
9,SEEDKEREHWERINRDFELRVLDTTFIAHHAEEVIKLLRWLEK [L13I],1.53
10,SEEDKEREHWERNNRDFELRVLDTTFIAHHAEEVIKLLRWLEK [L13N],1.43
11,SEEDKEREHWERHNRDFELRVLDTTFIAHHAEEVIKLLRWLEK [L13H],1.15
12,SEEDKEREHWERYNRDFELRVLDTTFIAHHAEEVIKLLRWLEK [L13Y],1.77
13,SEEDKEREHWERTNRDFELRVLDTTFIAHHAEEVIKLLRWLEK [L13T],1.52
14,SEEDKEREHWERGNRDFELRVLDTTFIAHHAEEVIKLLRWLEK [L13G],1.16
15,SEEDKEREHWERENRDFELRVLDTTFIAHHAEEVIKLLRWLEK [L13E],0.952
16,SEEDKEREHWERLGRDFELRVLDTTFIAHHAEEVIKLLRWLEK [N14G],1.55
17,SEEDKEREHWERLARDFELRVLDTTFIAHHAEEVIKLLRWLEK [N14A],1.84
18,SEEDKEREHWERLLRDFELRVLDTTFIAHHAEEVIKLLRWLEK [N14L],2.39
19,SEEDKEREHWERLCRDFELRVLDTTFIAHHAEEVIKLLRWLEK [N14C],2.44
20,SEEDKEREHWERLDRDFELRVLDTTFIAHHAEEVIKLLRWLEK [N14D],1.1
21,SEEDKEREHWERLRRDFELRVLDTTFIAHHAEEVIKLLRWLEK [N14R],2.11
22,SEEDKEREHWERLFRDFELRVLDTTFIAHHAEEVIKLLRWLEK [N14F],2.4
23,SEEDKEREHWERLERDFELRVLDTTFIAHHAEEVIKLLRWLEK [N14E],1.2
24,SEEDKEREHWERLQRDFELRVLDTTFIAHHAEEVIKLLRWLEK [N14Q],1.67

row,Variant,folding stability dG [kcal/mol]
1,SEEDKEREHWERLYRDFELRVLDTTFIAHHAEEVIKLLRWLEK [N14Y],2.2
2,SEEDKEREHWERLPRDFELRVLDTTFIAHHAEEVIKLLRWLEK [N14P],1.8
3,SEEDKEREHWERLTRDFELRVLDTTFIAHHAEEVIKLLRWLEK [N14T],1.8
4,SEEDKEREHWERLKRDFELRVLDTTFIAHHAEEVIKLLRWLEK [N14K],1.72
5,SEEDKEREHWERLWRDFELRVLDTTFIAHHAEEVIKLLRWLEK [N14W],2.69
6,SEEDKEREHWERLHRDFELRVLDTTFIAHHAEEVIKLLRWLEK [N14H],1.58
7,SEEDKEREHWERLVRDFELRVLDTTFIAHHAEEVIKLLRWLEK [N14V],2.21
8,SEEDKEREHWERLIRDFELRVLDTTFIAHHAEEVIKLLRWLEK [N14I],2.2
9,SEEDKEREHWERLSRDFELRVLDTTFIAHHAEEVIKLLRWLEK [N14S],1.96
10,SEEDKEREHWERLMRDFELRVLDTTFIAHHAEEVIKLLRWLEK [N14M],2.22
11,SEEDKEREHWERLNRDPELRVLDTTFIAHHAEEVIKLLRWLEK [F17P],0.774
12,SEEDKEREHWERLNRDSELRVLDTTFIAHHAEEVIKLLRWLEK [F17S],0.873
13,SEEDKEREHWERLNRDRELRVLDTTFIAHHAEEVIKLLRWLEK [F17R],0.912
14,SEEDKEREHWERLNRDGELRVLDTTFIAHHAEEVIKLLRWLEK [F17G],0.579
15,SEEDKEREHWERLNRDTELRVLDTTFIAHHAEEVIKLLRWLEK [F17T],0.782
16,SEEDKEREHWERLNRDHELRVLDTTFIAHHAEEVIKLLRWLEK [F17H],0.86
17,SEEDKEREHWERLNRDLELRVLDTTFIAHHAEEVIKLLRWLEK [F17L],1.14
18,SEEDKEREHWERLNRDIELRVLDTTFIAHHAEEVIKLLRWLEK [F17I],1.1
19,SEEDKEREHWERLNRDKELRVLDTTFIAHHAEEVIKLLRWLEK [F17K],0.798
20,SEEDKEREHWERLNRDNELRVLDTTFIAHHAEEVIKLLRWLEK [F17N],0.718
21,SEEDKEREHWERLNRDMELRVLDTTFIAHHAEEVIKLLRWLEK [F17M],1.01
22,SEEDKEREHWERLNRDQELRVLDTTFIAHHAEEVIKLLRWLEK [F17Q],0.444
23,SEEDKEREHWERLNRDWELRVLDTTFIAHHAEEVIKLLRWLEK [F17W],1.55
24,SEEDKEREHWERLNRDVELRVLDTTFIAHHAEEVIKLLRWLEK [F17V],0.83

row,Variant,folding stability dG [kcal/mol]
1,SEEDKEREHWERLNRDEELRVLDTTFIAHHAEEVIKLLRWLEK [F17E],0.738
2,SEEDKEREHWERLNRDAELRVLDTTFIAHHAEEVIKLLRWLEK [F17A],0.719
3,SEEDKEREHWERLNRDYELRVLDTTFIAHHAEEVIKLLRWLEK [F17Y],1.31
4,SEEDKEREHWERLNRDDELRVLDTTFIAHHAEEVIKLLRWLEK [F17D],0.606
5,SEEDKEREHWERLNRTFELRVLDTTFIAHHAEEVIKLLRWLEK [D16T],2.31
6,SEEDKEREHWERLNRVFELRVLDTTFIAHHAEEVIKLLRWLEK [D16V],2.04
7,SEEDKEREHWERLNRAFELRVLDTTFIAHHAEEVIKLLRWLEK [D16A],1.81
8,SEEDKEREHWERLNRSFELRVLDTTFIAHHAEEVIKLLRWLEK [D16S],1.57
9,SEEDKEREHWERLNRGFELRVLDTTFIAHHAEEVIKLLRWLEK [D16G],1.47
10,SEEDKEREHWERLNRYFELRVLDTTFIAHHAEEVIKLLRWLEK [D16Y],2.13
11,SEEDKEREHWERLNRLFELRVLDTTFIAHHAEEVIKLLRWLEK [D16L],2.02
12,SEEDKEREHWERLNRIFELRVLDTTFIAHHAEEVIKLLRWLEK [D16I],1.98
13,SEEDKEREHWERLNRRFELRVLDTTFIAHHAEEVIKLLRWLEK [D16R],1.76
14,SEEDKEREHWERLNRNFELRVLDTTFIAHHAEEVIKLLRWLEK [D16N],1.59
15,SEEDKEREHWERLNRHFELRVLDTTFIAHHAEEVIKLLRWLEK [D16H],1.93
16,SEEDKEREHWERLNREFELRVLDTTFIAHHAEEVIKLLRWLEK [D16E],1.43
17,SEEDKEREHWERLNRQFELRVLDTTFIAHHAEEVIKLLRWLEK [D16Q],1.6
18,SEEDKEREHWERLNRFFELRVLDTTFIAHHAEEVIKLLRWLEK [D16F],1.96
19,SEEDKEREHWERLNRWFELRVLDTTFIAHHAEEVIKLLRWLEK [D16W],2.27
20,SEEDKEREHWERLNRPFELRVLDTTFIAHHAEEVIKLLRWLEK [D16P],1.94
21,SEEDKEREHWERLNRMFELRVLDTTFIAHHAEEVIKLLRWLEK [D16M],1.73
22,SEEDKEREHWERLNRKFELRVLDTTFIAHHAEEVIKLLRWLEK [D16K],1.38
23,SEEDKEREHWERLNPDFELRVLDTTFIAHHAEEVIKLLRWLEK [R15P],1.11
24,SEEDKEREHWERLNCDFELRVLDTTFIAHHAEEVIKLLRWLEK [R15C],2.36

row,Variant,folding stability dG [kcal/mol]
1,SEEDKEREHWERLNGDFELRVLDTTFIAHHAEEVIKLLRWLEK [R15G],1.29
2,SEEDKEREHWERLNSDFELRVLDTTFIAHHAEEVIKLLRWLEK [R15S],1.25
3,SEEDKEREHWERLNWDFELRVLDTTFIAHHAEEVIKLLRWLEK [R15W],2.45
4,SEEDKEREHWERLNADFELRVLDTTFIAHHAEEVIKLLRWLEK [R15A],1.55
5,SEEDKEREHWERLNKDFELRVLDTTFIAHHAEEVIKLLRWLEK [R15K],1.25
6,SEEDKEREHWERLNVDFELRVLDTTFIAHHAEEVIKLLRWLEK [R15V],2.08
7,SEEDKEREHWERLNIDFELRVLDTTFIAHHAEEVIKLLRWLEK [R15I],2.41
8,SEEDKEREHWERLNYDFELRVLDTTFIAHHAEEVIKLLRWLEK [R15Y],1.84
9,SEEDKEREHWERLNLDFELRVLDTTFIAHHAEEVIKLLRWLEK [R15L],2.07
10,SEEDKEREHWERLNTDFELRVLDTTFIAHHAEEVIKLLRWLEK [R15T],1.4
11,SEEDKEREHWERLNNDFELRVLDTTFIAHHAEEVIKLLRWLEK [R15N],1.26
12,SEEDKEREHWERLNHDFELRVLDTTFIAHHAEEVIKLLRWLEK [R15H],1.42
13,SEEDKEREHWERLNMDFELRVLDTTFIAHHAEEVIKLLRWLEK [R15M],1.75
14,SEEDKEREHWERLNQDFELRVLDTTFIAHHAEEVIKLLRWLEK [R15Q],1.08
15,SEEDKEREHWERLNFDFELRVLDTTFIAHHAEEVIKLLRWLEK [R15F],2.37
16,SEEDKEREHWERLNEDFELRVLDTTFIAHHAEEVIKLLRWLEK [R15E],1.23
17,SEEDKEREHWERLNDDFELRVLDTTFIAHHAEEVIKLLRWLEK [R15D],1.22
18,SEEDKEREHWESLNRDFELRVLDTTFIAHHAEEVIKLLRWLEK [R12S],1.43
19,SEEDKEREHWEYLNRDFELRVLDTTFIAHHAEEVIKLLRWLEK [R12Y],1.66
20,SEEDKEREHWETLNRDFELRVLDTTFIAHHAEEVIKLLRWLEK [R12T],1.53
21,SEEDKEREHWEVLNRDFELRVLDTTFIAHHAEEVIKLLRWLEK [R12V],1.37
22,SEEDKEREHWEWLNRDFELRVLDTTFIAHHAEEVIKLLRWLEK [R12W],2.2
